Test results: patent US20220048967A1 (published 2022)
Numbered stars: 1 amine (or outer) side, 2 acyl side, 3 side chain; on linkers, the order of the positions; unused ones are H or OH. Square brackets hold non-standard residues; d marks the D form. Side chains are listed from the residue outwards. Ends that are not written are not given here. * marks the point of attachment. C20 diacid = O=C(O)CCCCCCCCCCCCCCCCCCC(=O)*; γGlu = O=C(O)[C@H](CCC(=O)[*:2])N[*:1]; AEEA = NCCOCCOCC(=O)O; Aib = CC(C)(N)C(=O)O

T1: human GIP receptor (human, UniProt P48546 22-466)
T1 sequence (looked up): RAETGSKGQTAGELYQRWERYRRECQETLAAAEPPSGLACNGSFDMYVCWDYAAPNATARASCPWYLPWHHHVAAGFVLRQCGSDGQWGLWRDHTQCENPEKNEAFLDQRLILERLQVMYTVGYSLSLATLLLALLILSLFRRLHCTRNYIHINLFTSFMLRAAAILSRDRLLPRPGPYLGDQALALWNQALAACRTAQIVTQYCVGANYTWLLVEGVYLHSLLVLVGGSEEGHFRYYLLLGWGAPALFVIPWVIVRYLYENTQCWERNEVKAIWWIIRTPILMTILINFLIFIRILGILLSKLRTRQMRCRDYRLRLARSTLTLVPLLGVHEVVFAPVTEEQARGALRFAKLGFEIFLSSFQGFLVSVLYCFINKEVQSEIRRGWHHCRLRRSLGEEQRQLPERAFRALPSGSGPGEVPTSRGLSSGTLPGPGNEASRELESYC

B1: Example 24 (peptide)
peptide: Y[Aib]EGTFTSDYK([AEEA-AEEA-γGlu-C20 diacid])ILLDKIAQ[Aib]AFIEYLIEGGPSSGAPPPS-NH2
modifications: N-terminus assumed
SMILES: CC[C@H](C)[C@H](NC(=O)[C@H](CCCCN)NC(=O)[C@H](CC(=O)O)NC(=O)[C@H](CC(C)C)NC(=O)[C@H](CC(C)C)NC(=O)[C@@H](NC(=O)[C@H](CCCCNC(=O)COCCOCCNC(=O)COCCOCCNC(=O)CC[C@H](NC(=O)CCCCCCCCCCCCCCCCCCC(=O)O)C(=O)O)NC(=O)[C@H](Cc1ccc(O)cc1)NC(=O)[C@H](CC(=O)O)NC(=O)[C@H](CO)NC(=O)[C@@H](NC(=O)[C@H](Cc1ccccc1)NC(=O)[C@@H](NC(=O)CNC(=O)[C@H](CCC(=O)O)NC(=O)C(C)(C)NC(=O)[C@@H](N)Cc1ccc(O)cc1)[C@@H](C)O)[C@@H](C)O)[C@@H](C)CC)C(=O)N[C@@H](C)C(=O)N[C@@H](CCC(N)=O)C(=O)NC(C)(C)C(=O)N[C@@H](C)C(=O)N[C@@H](Cc1ccccc1)C(=O)N[C@H](C(=O)N[C@@H](CCC(=O)O)C(=O)N[C@@H](Cc1ccc(O)cc1)C(=O)N[C@@H](CC(C)C)C(=O)N[C@H](C(=O)N[C@@H](CCC(=O)O)C(=O)NCC(=O)NCC(=O)N1CCC[C@H]1C(=O)N[C@@H](CO)C(=O)N[C@@H](CO)C(=O)NCC(=O)N[C@@H](C)C(=O)N1CCC[C@H]1C(=O)N1CCC[C@H]1C(=O)N1CCC[C@H]1C(=O)N[C@@H](CO)C(N)=O)[C@@H](C)CC)[C@@H](C)CC
B2: Example 27 (peptide)
peptide: Y[Aib]EGTFTSDYSILK([AEEA-AEEA-γGlu-C20 diacid])DKIAQ[Aib]AFIEYLIEGGPSSGAPPPS-NH2
modifications: N-terminus assumed
SMILES: CC[C@H](C)[C@H](NC(=O)[C@H](CCCCN)NC(=O)[C@H](CC(=O)O)NC(=O)[C@H](CCCCNC(=O)COCCOCCNC(=O)COCCOCCNC(=O)CC[C@H](NC(=O)CCCCCCCCCCCCCCCCCCC(=O)O)C(=O)O)NC(=O)[C@H](CC(C)C)NC(=O)[C@@H](NC(=O)[C@H](CO)NC(=O)[C@H](Cc1ccc(O)cc1)NC(=O)[C@H](CC(=O)O)NC(=O)[C@H](CO)NC(=O)[C@@H](NC(=O)[C@H](Cc1ccccc1)NC(=O)[C@@H](NC(=O)CNC(=O)[C@H](CCC(=O)O)NC(=O)C(C)(C)NC(=O)[C@@H](N)Cc1ccc(O)cc1)[C@@H](C)O)[C@@H](C)O)[C@@H](C)CC)C(=O)N[C@@H](C)C(=O)N[C@@H](CCC(N)=O)C(=O)NC(C)(C)C(=O)N[C@@H](C)C(=O)N[C@@H](Cc1ccccc1)C(=O)N[C@H](C(=O)N[C@@H](CCC(=O)O)C(=O)N[C@@H](Cc1ccc(O)cc1)C(=O)N[C@@H](CC(C)C)C(=O)N[C@H](C(=O)N[C@@H](CCC(=O)O)C(=O)NCC(=O)NCC(=O)N1CCC[C@H]1C(=O)N[C@@H](CO)C(=O)N[C@@H](CO)C(=O)NCC(=O)N[C@@H](C)C(=O)N1CCC[C@H]1C(=O)N1CCC[C@H]1C(=O)N1CCC[C@H]1C(=O)N[C@@H](CO)C(N)=O)[C@@H](C)CC)[C@@H](C)CC
B3: Example 25 (peptide)
peptide: Y[Aib]EGTFTSDYSK([AEEA-AEEA-γGlu-C20 diacid])LLDKIAQ[Aib]AFIEYLIEGGPSSGAPPPS-NH2
modifications: N-terminus assumed
SMILES: CC[C@H](C)[C@H](NC(=O)[C@H](CCCCN)NC(=O)[C@H](CC(=O)O)NC(=O)[C@H](CC(C)C)NC(=O)[C@H](CC(C)C)NC(=O)[C@H](CCCCNC(=O)COCCOCCNC(=O)COCCOCCNC(=O)CC[C@H](NC(=O)CCCCCCCCCCCCCCCCCCC(=O)O)C(=O)O)NC(=O)[C@H](CO)NC(=O)[C@H](Cc1ccc(O)cc1)NC(=O)[C@H](CC(=O)O)NC(=O)[C@H](CO)NC(=O)[C@@H](NC(=O)[C@H](Cc1ccccc1)NC(=O)[C@@H](NC(=O)CNC(=O)[C@H](CCC(=O)O)NC(=O)C(C)(C)NC(=O)[C@@H](N)Cc1ccc(O)cc1)[C@@H](C)O)[C@@H](C)O)C(=O)N[C@@H](C)C(=O)N[C@@H](CCC(N)=O)C(=O)NC(C)(C)C(=O)N[C@@H](C)C(=O)N[C@@H](Cc1ccccc1)C(=O)N[C@H](C(=O)N[C@@H](CCC(=O)O)C(=O)N[C@@H](Cc1ccc(O)cc1)C(=O)N[C@@H](CC(C)C)C(=O)N[C@H](C(=O)N[C@@H](CCC(=O)O)C(=O)NCC(=O)NCC(=O)N1CCC[C@H]1C(=O)N[C@@H](CO)C(=O)N[C@@H](CO)C(=O)NCC(=O)N[C@@H](C)C(=O)N1CCC[C@H]1C(=O)N1CCC[C@H]1C(=O)N1CCC[C@H]1C(=O)N[C@@H](CO)C(N)=O)[C@@H](C)CC)[C@@H](C)CC
B4: Example 26 (peptide)
peptide: Y[Aib]EGTFTSDYSIK([AEEA-AEEA-γGlu-C20 diacid])LDKIAQ[Aib]AFIEYLIEGGPSSGAPPPS-NH2
modifications: N-terminus assumed
SMILES: CC[C@H](C)[C@H](NC(=O)[C@H](CCCCN)NC(=O)[C@H](CC(=O)O)NC(=O)[C@H](CC(C)C)NC(=O)[C@H](CCCCNC(=O)COCCOCCNC(=O)COCCOCCNC(=O)CC[C@H](NC(=O)CCCCCCCCCCCCCCCCCCC(=O)O)C(=O)O)NC(=O)[C@@H](NC(=O)[C@H](CO)NC(=O)[C@H](Cc1ccc(O)cc1)NC(=O)[C@H](CC(=O)O)NC(=O)[C@H](CO)NC(=O)[C@@H](NC(=O)[C@H](Cc1ccccc1)NC(=O)[C@@H](NC(=O)CNC(=O)[C@H](CCC(=O)O)NC(=O)C(C)(C)NC(=O)[C@@H](N)Cc1ccc(O)cc1)[C@@H](C)O)[C@@H](C)O)[C@@H](C)CC)C(=O)N[C@@H](C)C(=O)N[C@@H](CCC(N)=O)C(=O)NC(C)(C)C(=O)N[C@@H](C)C(=O)N[C@@H](Cc1ccccc1)C(=O)N[C@H](C(=O)N[C@@H](CCC(=O)O)C(=O)N[C@@H](Cc1ccc(O)cc1)C(=O)N[C@@H](CC(C)C)C(=O)N[C@H](C(=O)N[C@@H](CCC(=O)O)C(=O)NCC(=O)NCC(=O)N1CCC[C@H]1C(=O)N[C@@H](CO)C(=O)N[C@@H](CO)C(=O)NCC(=O)N[C@@H](C)C(=O)N1CCC[C@H]1C(=O)N1CCC[C@H]1C(=O)N1CCC[C@H]1C(=O)N[C@@H](CO)C(N)=O)[C@@H](C)CC)[C@@H](C)CC

Target: T1, human GIP receptor
Assay: cell-based or functional assay

Binder | hGIPR cAMP EC50 ratio | hGIPR cAMP Rel EC50
B1 | 0.228 | 0.762 nM
B2 | 1.9 | 0.0789 nM
B3 | 0.636 | 0.23 nM
B4 | 0.585 | 0.251 nM

Target: human GLP-1 receptor (human, UniProt P43220 24-463)
Assay: cell-based or functional assay

Binder | hGLP1R cAMP EC50 ratio | hGLP1R cAMP Rel EC50
B1 | 0.00416 | 13 nM
B2 | 0.123 | 0.557 nM
B3 | 0.197 | 0.356 nM
B4 | 0.238 | 0.293 nM
